From paper PMC11267847 come the findings set out here.

What all share (experiment): EMSA
Holding throughout (details): EMSA kit (Biyuntian): 50 ng biotin-labeled DNA, 2 uL binding buffer, 2 ug protein; competitors 5 ug unlabeled DNA; buffer composition, pH and temperature not …

The target in data set [1] is T1, Hot1p (Pichia pastoris (Komagataella phaffii), strain SMD1168?) (UniProt C4QW90).
T1 sequence: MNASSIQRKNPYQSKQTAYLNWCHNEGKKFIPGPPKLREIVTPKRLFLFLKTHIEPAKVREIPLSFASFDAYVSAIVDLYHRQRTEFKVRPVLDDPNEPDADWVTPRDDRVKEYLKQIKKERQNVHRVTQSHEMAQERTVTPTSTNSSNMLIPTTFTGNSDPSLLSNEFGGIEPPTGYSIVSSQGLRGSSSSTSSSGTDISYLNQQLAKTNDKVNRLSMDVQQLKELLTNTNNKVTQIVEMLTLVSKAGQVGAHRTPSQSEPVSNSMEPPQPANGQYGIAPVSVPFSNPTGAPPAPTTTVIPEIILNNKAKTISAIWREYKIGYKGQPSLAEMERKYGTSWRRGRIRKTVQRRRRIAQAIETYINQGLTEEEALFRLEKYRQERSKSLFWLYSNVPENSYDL

The target of data set [2] is T2, Gsm1p (Pichia pastoris (Komagataella phaffii), strain SMD1168?) (UniProt C4R1K8).
T2 sequence: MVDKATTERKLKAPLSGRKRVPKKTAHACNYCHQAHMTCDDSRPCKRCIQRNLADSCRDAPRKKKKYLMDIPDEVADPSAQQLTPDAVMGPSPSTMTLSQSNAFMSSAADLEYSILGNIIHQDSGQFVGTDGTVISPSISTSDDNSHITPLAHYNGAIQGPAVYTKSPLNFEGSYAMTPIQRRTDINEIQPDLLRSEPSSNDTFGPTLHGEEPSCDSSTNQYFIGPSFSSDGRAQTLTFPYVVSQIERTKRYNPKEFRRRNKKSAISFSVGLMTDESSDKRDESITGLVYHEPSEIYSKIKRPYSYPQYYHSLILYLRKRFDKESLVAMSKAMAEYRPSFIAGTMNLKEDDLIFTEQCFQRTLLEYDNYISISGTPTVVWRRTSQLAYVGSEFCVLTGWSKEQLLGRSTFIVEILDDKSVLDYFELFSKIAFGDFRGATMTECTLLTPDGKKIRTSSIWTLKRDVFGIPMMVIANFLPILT

Data set [3] addresses T3, Loc1p (Pichia pastoris (Komagataella phaffii), cloned from P. pastoris genome, strain SMD1168?) (UniProt C4QX18).
T3 sequence: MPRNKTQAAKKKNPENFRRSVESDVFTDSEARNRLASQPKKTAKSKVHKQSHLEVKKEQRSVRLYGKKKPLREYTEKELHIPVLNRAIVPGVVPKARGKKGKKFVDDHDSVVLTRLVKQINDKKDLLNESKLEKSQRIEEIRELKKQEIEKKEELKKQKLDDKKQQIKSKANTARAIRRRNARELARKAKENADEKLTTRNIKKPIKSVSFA

For the sequence “AGATCTTTTTTGTAGAAATGTCTTGGTGTCCTCGTCCAATCAGGTAGCCATCTCTGAAATATCTGGCTCCGTTGCAACTCCGAACGACCTGCTGGCAACGTAAAATTCTCCGGGGTAAAACTTAAATGTGGAGTAATGGAACCAGAAACGTCTCTTCCCTTCTCTCTCCTTCCACCGCCCGTTACCGTCCCTAGGAAATTTTAC (double strand) [pGAP-AB]”, the binding result in data set [1], in data set [2] and in data set [3] was “binds” throughout.
With “AGCAGCCCAGGGATGGAAAAGTCCCGGCCGTCGCTGGCAATAATAGCGGGCGGACGCATGTCATGAGATTATTGGAAACCACCAGAATCGAATATAAAAGGCGAACACCTTTCCCAATTTTGGTTTCTCCTGACCCAAAGACTTTAAATTTAATTTATTTGTCCCTATTTCAATCAATTGAACAACTATTTCGAAACG (double strand) [pGAP-CD]”, the binding entry in data set [1] is given as “binds”; in data set [2], “binds”; in data set [3] it was “no binding”.
For the sequence “CATGCGTCCGCCCGCTATTATTGCCAGCGACGGCCGGGACTTTTCCATCCCTGGGCTGCTAGGTCGGGTACACGACCTCCGTTTTACCCGCAACGTAATGCTGGGAAGAGCATTGCTGCAAGGGGGCCGTAGAAGAAGCTCTCCAGCAGAGTAAAATTTCCTAGGGACGGTAACGGGCGGTGGAAGGAGAGAGAAGGGAAGAGA (double strand) [pGAP-BC]”, the binding result in data set [1], in data set [2] and in data set [3] was “binds” throughout.
